Test results reported in paper PMC4506093.

Key:
[1] = molecular target: highly purified 26S proteasome, extracted from transformed HEK cells
[2] = molecular target: highly purified 26S proteasome, extracted from transformed HEK cells; remark: listed apart in the source

## recombinant IDE expressed in Spodoptera frugiperda (from UniProt P35559 1-1019) (enzyme)
[1]
  inhibition of the caspase-like activity (50 micromol/L Z-LLE-AMC, after subtracting IDE's own cleavage) of 1 nanomol/L 26S proteasome by IDE up to 50 nanomol/L at 37°C; value at 50 nanomol/L IDE: 60%
[2]
  inhibition of the chymotryptic-like activity (50 micromol/L Suc-LLVY-AMC) of 1 nanomol/L 26S proteasome by IDE from 1 nanomol/L to 50 nanomol/L at 37°C; value at 50 nanomol/L IDE: 55%
  inhibition of the tryptic-like activity (50 micromol/L Boc-LLR-AMC) of 1 nanomol/L 26S proteasome by IDE from 1 nanomol/L to 50 nanomol/L at 37°C; value at 50 nanomol/L IDE: 65 to 70%
